± gives the uncertainty stated by the source.
Assay: self-splicing fitness, log relative to wild type (ln ratio); higher = more splicing; Tetrahymena group I intron in knt gene, E. coli kanamycin selection, DiMSum; sequences stand for … in CUCUCU…GGAGGGAAAAGUUAUCAGGCAUGCACCUGGUAGCUAGUCUUUAAACCAAUAGAUUGCAUCGGUUUAAAAGGCAAGACCGUCAAAUUGCGGGAAAGGGGUCAACAGCCGUUCAGUACCAAGUCUCAGGGGAAACUUUGAGAUGGCCUUGCAAAGGGUAUGGUAAUAAGCUGACGGACAUGGUCCUAACCACGCAGCCAAGUCCUAAGUCAACAGAUCUUCUGUUGAUAUGGAUGCAGUUCACAGACUAAAUGUCGGUCGGGGAAGAUGUAUUCUUCUCAUAAGAUAUAGUCGGACCUCUCCUUAAUGGGAGCUAGCGGAUGAAGUGAUGCAACACUGGAGCCGCUGGGAACUAAUUUGUAUGCGAAAGUAUAUUGAUUAGUUUUGGAGUACUCGUGGUCG
Summary of the method: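 DiMSum derived fitness as the error-weighted combination of fold changes across replicates, kanamycin versus no kanamycin, normalised to wild type. E. coli BL21(DE3) held the library, which randomised all eight P1ex-region intron nucleotides within the knt kanamycin-resistance gene on pET-22b(+). Six replicate transformations grew overnight at 37°C or 30°C on LB agar with or without 25 μg/mL kanamycin, also containing 100 μg/mL carbenicillin, 50 μM IPTG and 0.2% rhamnose, and pooled colonies were amplicon-sequenced on an Illumina HiSeq 2500.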

Sequence | self-splicing fitness (ln) (30 °C) | self-splicing fitness (ln) (37 °C)
CUAGAGCAAUAUUACGCAGA | -2.47 ± 0.37 | -3.6 ± 0.33
CAGGAGCAAUAUUACGGAAA | -2.58 ± 0.14 | -2.59 ± 0.23
AGGGAGCAAUAUUACGAAUU | – | -0.525 ± 0.18
CCCGAGCAAUAUUACGUAGU | -3.11 ± 0.15 | -2.58 ± 0.19
CUGGAGCAAUAUUACGCGGC | -1.27 ± 0.14 | 0.0532 ± 0.14
GCUGAGCAAUAUUACGUUCU | -0.944 ± 0.12 | -0.758 ± 0.15
CUUAAGCAAUAUUACGGCCU | -2.74 ± 0.25 | -3.1 ± 0.44
GACAAGCAAUAUUACGAUUC | -0.734 ± 0.083 | -0.552 ± 0.12
AUUCAGCAAUAUUACGUUGA | -2.64 ± 0.1 | -1.34 ± 0.093
UAUUAGCAAUAUUACGCAGA | -1.96 ± 0.28 | -1.63 ± 0.23
AAAUAGCAAUAUUACGACGC | -0.825 ± 0.062 | 0.13 ± 0.085
CAUCAGCAAUAUUACGAAGU | -3.41 ± 0.18 | -1.52 ± 0.14
AGCGAGCAAUAUUACGGCCC | -1.03 ± 0.28 | -0.383 ± 0.24
UCCCAGCAAUAUUACGAAGA | -0.348 ± 0.084 | -0.266 ± 0.09
UGUGAGCAAUAUUACGCCAA | -1.67 ± 0.5 | -0.355 ± 0.39
CUCAAGCAAUAUUACGGGGC | -4.64 ± 0.41 | -3.31 ± 0.33
GGCAAGCAAUAUUACGUUAA | -1.09 ± 0.1 | -0.115 ± 0.1
UACGAGCAAUAUUACGGACA | -3.34 ± 0.26 | -1.72 ± 0.17
GAAAAGCAAUAUUACGUGUC | -3.41 ± 0.13 | -2.33 ± 0.14
CAACAGCAAUAUUACGGUGC | -3.12 ± 0.12 | -2.8 ± 0.16
AAGUAGCAAUAUUACGCCAC | -3.93 ± 0.36 | -2.49 ± 0.42
AACUAGCAAUAUUACGUUUG | -3.27 ± 0.15 | -1.72 ± 0.14
CGAAAGCAAUAUUACGCGGA | -3.29 ± 0.26 | -1.83 ± 0.17
GUAAAGCAAUAUUACGUAGA | -2.33 ± 0.1 | -1.32 ± 0.12
UAGUAGCAAUAUUACGUAAU | -2.43 ± 0.13 | -2.19 ± 0.13

Sequence | self-splicing fitness (ln) (30 °C) | self-splicing fitness (ln) (37 °C)
ACUCAGCAAUAUUACGCGCC | -1.17 ± 0.16 | -0.503 ± 0.17
AAAUAGCAAUAUUACGCUCA | -0.111 ± 0.13 | 0.39 ± 0.16
AAAGAGCAAUAUUACGGGGG | -2.5 ± 0.34 | -2.31 ± 0.39
ACUCAGCAAUAUUACGGGGC | -4.64 ± 0.34 | -2.93 ± 0.44
GAGUAGCAAUAUUACGAACU | -0.979 ± 0.14 | -0.323 ± 0.23
AGAAAGCAAUAUUACGCGCA | -0.218 ± 0.094 | 0.174 ± 0.11
CAAUAGCAAUAUUACGUAGU | -3.31 ± 0.29 | -2.44 ± 0.22
UUCCAGCAAUAUUACGAGAG | -1.82 ± 0.093 | -0.571 ± 0.13
UUAGAGCAAUAUUACGUGUA | -3.04 ± 0.18 | -1.83 ± 0.17
CGGUAGCAAUAUUACGAUUU | -2.17 ± 0.17 | -0.333 ± 0.15
AGUUAGCAAUAUUACGUUGU | -4.38 ± 0.37 | -3.36 ± 0.37
GAGCAGCAAUAUUACGACAU | -1.29 ± 0.013 | -0.608 ± 0.033
GGUCAGCAAUAUUACGAGAU | -2.39 ± 0.14 | -2.31 ± 0.23
CCUUAGCAAUAUUACGUUCG | -3.37 ± 0.29 | -0.857 ± 0.18
AGAUAGCAAUAUUACGUCAC | -1.17 ± 0.27 | -2.78 ± 0.48
UACCAGCAAUAUUACGGUCA | -0.0407 ± 0.07 | 0.125 ± 0.1
GCCUAGCAAUAUUACGGCGU | -0.505 ± 0.074 | -0.0919 ± 0.08
AGUGAGCAAUAUUACGAGUU | -2.21 ± 0.18 | -1.28 ± 0.18
GAGUAGCAAUAUUACGAAUC | -2.47 ± 0.23 | -2.31 ± 0.24
ACCCAGCAAUAUUACGUGCU | -4.5 ± 0.23 | -1.67 ± 0.12
CGCGAGCAAUAUUACGAUGU | -3.79 ± 0.23 | -2.74 ± 0.22
GUUAAGCAAUAUUACGAAUU | -1.72 ± 0.21 | -1.4 ± 0.24
AUAUAGCAAUAUUACGGGUC | -4.55 ± 0.46 | -2.17 ± 0.25
AUUAAGCAAUAUUACGUACU | 0.0206 ± 0.094 | 0.125 ± 0.12
CGAUAGCAAUAUUACGCCCU | -0.983 ± 0.2 | 0.695 ± 0.25

Sequence | self-splicing fitness (ln) (30 °C) | self-splicing fitness (ln) (37 °C)
UAUGAGCAAUAUUACGACUG | -1.23 ± 0.12 | -0.328 ± 0.14
GAUUAGCAAUAUUACGCAUU | -2.53 ± 0.14 | -2.25 ± 0.17
CAUGAGCAAUAUUACGAGUA | -2.36 ± 0.21 | -1.12 ± 0.24
UGAAAGCAAUAUUACGUGUU | -3.21 ± 0.13 | -1.44 ± 0.11
AAGAAGCAAUAUUACGUAGG | -2.09 ± 0.082 | -1.14 ± 0.12
UUUAAGCAAUAUUACGAUCG | -0.416 ± 0.12 | 0.237 ± 0.17
AUGAAGCAAUAUUACGCUCC | -0.958 ± 0.32 | 0.251 ± 0.35
UUUAAGCAAUAUUACGUACG | -0.346 ± 0.16 | 0.322 ± 0.17
GAUGAGCAAUAUUACGAUAG | -3.33 ± 0.16 | -2.42 ± 0.17
UGAGAGCAAUAUUACGUAUU | -3.22 ± 0.34 | -1 ± 0.21
GGCUAGCAAUAUUACGAUUA | -0.803 ± 0.085 | -0.572 ± 0.079
UAGUAGCAAUAUUACGGUCG | -0.566 ± 0.097 | -0.103 ± 0.12
UAAAAGCAAUAUUACGGUUC | -3.1 ± 0.17 | -2.42 ± 0.2
GGAUAGCAAUAUUACGCGAU | -3.65 ± 0.3 | -2.91 ± 0.47
UGAUAGCAAUAUUACGCUCU | -1.41 ± 0.11 | 0.193 ± 0.15
GGACAGCAAUAUUACGAAAG | -3.73 ± 0.33 | -2.88 ± 0.43
UGAAAGCAAUAUUACGCCAU | -3.11 ± 0.3 | -3.23 ± 0.33
GCAGAGCAAUAUUACGUGUU | -4.35 ± 0.3 | -2.42 ± 0.18
CCGCAGCAAUAUUACGGUUG | -2.18 ± 0.066 | -1.24 ± 0.085
CUGCAGCAAUAUUACGAUAA | -3.39 ± 0.28 | -3.1 ± 0.28
ACUCAGCAAUAUUACGAAAG | -1.78 ± 0.12 | -1.42 ± 0.15
AUGUAGCAAUAUUACGCAGG | -2.06 ± 0.22 | -1.7 ± 0.19
CGGUAGCAAUAUUACGCCAC | -3.5 ± 0.39 | -2.03 ± 0.27
GGGUAGCAAUAUUACGUGGC | – | -2.64 ± 0.33
UAGCAGCAAUAUUACGAUGA | -0.884 ± 0.069 | -0.42 ± 0.066

Reference: the supplement of paper PMC7877785
